Here are results for 1 molecule from publication PMC5051544.

This assay concerns the target T1, Bacteriorhodopsin, P02945.
T1 chain: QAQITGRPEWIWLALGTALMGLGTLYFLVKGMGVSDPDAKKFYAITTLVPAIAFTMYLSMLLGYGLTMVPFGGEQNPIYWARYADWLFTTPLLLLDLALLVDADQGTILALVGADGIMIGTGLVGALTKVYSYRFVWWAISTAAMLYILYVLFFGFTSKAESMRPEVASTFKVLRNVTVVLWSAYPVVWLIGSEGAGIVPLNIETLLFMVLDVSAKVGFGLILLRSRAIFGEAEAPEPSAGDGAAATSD
Kind of assay: SEC. The following applies: remark: other sources report otherwise.

B1: Bacteriorhodopsin, P02945 14-262 (natural protein)
chain: T1 chain
The stoichiometry N is a count of units in the complex or per binding partner. As for B1, the stoichiometry N amounted to 3 per nanodisc.
